Legend:
[1] = HPLC-assay for in-use stability after reconstitution with 4.2% sodium hydrogen carbonate solution (Example 3, peptides SEQ ID NO 11-23); format: physicochemical
Description: For clinical trials the above described formulation is dissolved in 700 μl sodium hydrogen carbonate (4.2%). To dissolve the lyophilisate, the vial and the diluent shall be shaken vigorously for 1 minute, check whether solution is clear, otherwise continue shaking for another minute until the solution is clear. Administration of 500 μL of the solution has to occur within 1 h after reconstitution. Dissolved lyophilisate may be stored aseptically at room temperature for up to 1 hour following reconstitution.
(§1) Identity, purity and peptide content are determined by analytical RP-HPLC chromatography. Detection wavelength was 220 nm.

[2] = HPLC-assay for stability of peptides in lyophilised formulation on storage for 3 months (Example 4); format: physicochemical; settings: for stability of peptides in formulation, 1 M: 1 month; for stability of peptides in formulation, 2 M: 2 months; for stability of peptides in formulation, 3 M: 3 months
Description: as §1

Sequence | in-use stability, Peptide [%] ([1]; +Mannitol/Lutrol, 2h) | in-use stability, Peptide [%] ([1]; +Mannitol/Lutrol, 4h) | in-use stability, Peptide [%] ([1]; +Mannitol/Lutrol, 6h) | in-use stability, Peptide [%] ([1]; +Mannitol/Lutrol, Initial) | in-use stability, Peptide [%] ([1]; no excipients, 2h) | in-use stability, Peptide [%] ([1]; no excipients, 4h) | in-use stability, Peptide [%] ([1]; no excipients, 6h) | in-use stability, Peptide [%] ([1]; no excipients, Initial) | stability of peptides in formulation, 1 M ([2]; +5° C. +/- 3° C.) | stability of peptides in formulation, 2 M ([2]; +5° C. +/- 3° C.) | stability of peptides in formulation, 3 M ([2]; +5° C. +/- 3° C.) | stability of peptides in formulation, INITIAL ([2]; +5° C. +/- 3° C.) | stability of peptides in formulation, 1 M ([2]; +25° C. +/- 2° C.) | stability of peptides in formulation, 2 M ([2]; +25° C. +/- 2° C.) | stability of peptides in formulation, 3 M ([2]; +25° C. +/- 2° C.) | stability of peptides in formulation, INITIAL ([2]; +25° C. +/- 2° C.) | stability of peptides in formulation, 1 M ([2]; -20° C. +/- 5° C.) | stability of peptides in formulation, 2 M ([2]; -20° C. +/- 5° C.) | stability of peptides in formulation, 3 M ([2]; -20° C. +/- 5° C.) | stability of peptides in formulation, INITIAL ([2]; -20° C. +/- 5° C.)
AMTQLLAGV (listed as Homo sapiens) [TNC-001, Tenascin C peptide] | 100.5% | 100.6% | 100.2% | 100.0% | 100.0% | 100.4% | 95.7% | 100.0% | 99.02 % of Initial | 98.10 % of Initial | 98.72 % of Initial | 100.0% | 97.86 % of Initial | 96.80 % of Initial | 97.21 % of Initial | 100.0% | 99.01 % of Initial | 97.61 % of Initial | 98.57 % of Initial | 100.0%
GLWHHQTEV (listed as Homo sapiens) [NRCAM-001, Neuronal cell adhesion molecule peptide] | 99.9% | 100.0% | 99.5% | 100.0% | 99.8% | 100.2% | 95.6% | 100.0% | 99.13 % of Initial | 98.17 % of Initial | 98.79 % of Initial | 100.0% | 97.90 % of Initial | 96.73 % of Initial | 97.59 % of Initial | 100.0% | 99.23 % of Initial | 97.86 % of Initial | 98.91 % of Initial | 100.0%
KIQEILTQV (listed as Homo sapiens) [IGF2BP3-001] | 100.4% | 100.6% | 100.7% | 100.0% | 100.0% | 101.2% | 96.0% | 100.0% | 99.00 % of Initial | 97.92 % of Initial | 98.57 % of Initial | 100.0% | 98.01 % of Initial | 96.77 % of Initial | 97.34 % of Initial | 100.0% | 99.10 % of Initial | 97.54 % of Initial | 98.42 % of Initial | 100.0%
KVFAGIPTV (listed as Homo sapiens) [PTP-005, Protein tyrosine phosphatase, receptor-type, Z polypeptide 1 peptide] | 100.1% | 100.3% | 99.8% | 100.0% | 99.9% | 100.4% | 95.8% | 100.0% | 98.93 % of Initial | 97.79 % of Initial | 98.67 % of Initial | 100.0% | 98.16 % of Initial | 97.10 % of Initial | 98.30 % of Initial | 100.0% | 98.99 % of Initial | 97.41 % of Initial | 98.34 % of Initial | 100.0%

From patent US9289478B2, “Formulations of tumour-associated peptides binding to human leukocyte antigen (HLA) class I or class II molecules for vaccine” (IMMATICS BIOTECHNOLOGIES GMBH, priority 2008, dated 2016)
